Experimental findings from publication PMC6003631 are described below.

For assay [1], the target named is human μ receptor-Rluc (human) (UniProt P35372).
The target of a further assay is rat HA-μ receptor (rat) (UniProt P33535).
Chain of UniProt P33535 (P33535 whole entry): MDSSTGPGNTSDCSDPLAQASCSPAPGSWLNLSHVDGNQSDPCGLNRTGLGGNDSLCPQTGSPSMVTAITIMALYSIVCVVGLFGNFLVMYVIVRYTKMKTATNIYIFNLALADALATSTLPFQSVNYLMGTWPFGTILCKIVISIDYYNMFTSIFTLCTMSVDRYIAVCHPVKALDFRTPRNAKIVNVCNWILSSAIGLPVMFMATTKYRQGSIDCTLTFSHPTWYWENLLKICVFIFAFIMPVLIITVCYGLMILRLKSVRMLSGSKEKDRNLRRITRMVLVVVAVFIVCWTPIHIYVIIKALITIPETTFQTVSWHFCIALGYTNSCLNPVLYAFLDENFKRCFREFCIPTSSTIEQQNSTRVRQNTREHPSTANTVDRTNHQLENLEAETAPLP

Chain of UniProt P35372 (P35372 whole entry): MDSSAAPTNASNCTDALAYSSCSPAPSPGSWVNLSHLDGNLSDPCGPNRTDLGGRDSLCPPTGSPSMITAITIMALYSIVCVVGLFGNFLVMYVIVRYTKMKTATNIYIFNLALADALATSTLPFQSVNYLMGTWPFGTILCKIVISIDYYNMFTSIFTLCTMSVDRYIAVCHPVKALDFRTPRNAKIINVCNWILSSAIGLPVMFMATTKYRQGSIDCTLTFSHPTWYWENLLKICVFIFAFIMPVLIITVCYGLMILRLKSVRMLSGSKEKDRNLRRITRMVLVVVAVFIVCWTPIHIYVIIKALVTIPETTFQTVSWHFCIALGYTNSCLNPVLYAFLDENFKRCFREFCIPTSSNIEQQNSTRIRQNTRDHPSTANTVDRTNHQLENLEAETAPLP

Regarding “D-Ala^2, N-MePhe^4, Gly-ol-enkephalin (peptide)”, the arrestin-3 recruitment to the μ receptor (BRET between human μ receptor-Rluc and arrestin-3-GFP) in HEK 293 cells, EC50 in assay [1] worked out at 1.2 µM. In the assay with rat HA-μ receptor (rat), the Gi activation (decrease of the BRET signal between Gαi1-RlucII and GFP10-Gγ2) in HEK 293 cells expressing rat HA-μ receptors, EC50 worked out at 390 nM; the Gi activation (decrease of the BRET signal between Gαi1-RlucII and GFP10-Gγ2) in HEK 293 cells expressing rat HA-μ receptors, maximum response (BRET ratio) worked out at 12.4 BRET ratio.
